In US20250163137A1 (UNI PHARMA, published 2025):

Key:
[1] = target: T1, canine FDP (fibrin-fibrinogen degradation products) (canine); assay: affinity test (RU read-out; instrument not named)
T1 construct: A heterogeneous mixture

[2] = target: T1, canine FDP (fibrin-fibrinogen …); assay: kinetic analysis, 1:1 binding fit (RU read-out; instrument not named)

T1 sequence (Q9NRC9 whole entry): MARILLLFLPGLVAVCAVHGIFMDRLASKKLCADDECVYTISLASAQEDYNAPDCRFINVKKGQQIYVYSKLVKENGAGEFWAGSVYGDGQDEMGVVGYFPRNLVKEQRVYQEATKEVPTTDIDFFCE

B1: mAb 14G12-5 (antibody, V domains shown)
VH: EVQLVESGGGLVKPGGSLKLSCAASGFAFNAYDMSWVRQTPEKRLEWVAYISSSGDYTYYPDTVKGRFTVSRDNAKSTLYLHMGSLKSEDTAMYYCAVYYHYDEGLDYWGQGTALTVSS
VL: QIVLIQSPAIMSASPGEKVTMTCSASSSVNYMHWYQQKSGTSPKRWIYDTSKLASGVPARFSGSGSGTSYSLTISSMEAEDAATYYCQQWSSNPPTFGGGTKLEIKR
notes: also called 14G12-5 mAb; recombinant antibody 14G12-5
**Q.** For B1, which Kd [1] is on record?
**A.** 5030 nM

**Q.** And the Kd [2]?
**A.** 55.2 nM

**Q.** What about the koff [2] of the same binder?
**A.** 0.0026 s⁻¹

**Q.** And the kon [2]?
**A.** 47100 M⁻¹ s⁻¹
